In publication PMC8237747 (Journal for Immunotherapy of Cancer, 2021):

B1: cyno 4-1BB overexpressed on CHO cells (receptor)
chain: LQDLCSNCPAGTFCDNNRSQICSPCPPNSFSSAGGQRTCDICRQCKGVFKTRKECSSTSNAECDCISGYHCLGAECSMCEQDCKQGQELTKKGCKDCCFGTFNDQKRGICRPWTNCSLDGKSVLVNGTKERDVVCGPSPADLSPGASSATPPAPAREPGHSPQIIFFLALTSTVVLFLLFFLVLRFSVVKRSRKKLLYIFKQPFMRPVQTTQEEDGCSCRFPEEEEGGCEL

Legend:
HZ-L-Yr-16-Fc [1] = test: flow cytometry on cells
[2] = target: B1; test: flow cytometry on cells
HZ-L-Yr-16-Fc [3] = test: ELISA

Row | binding result (HZ-L-Yr-16-Fc [3]) | Binder | also measured
1 |  | B1 | binding result (HZ-L-Yr-16-Fc [1]): binds
2 |  | Urelumab (antibody, V domains shown) VH: QVQLQQWGAGLLKPSETLSLTCAVYGGSFSGYYWSWIRQSPEKGLEWIGEINHGGYVTYNPSLESRVTISVDTSKNQFSLKLSSVTAADTAVYYCARDYGPGNYDWYFDLWGRGTLVTVSS VL: EIVLTQSPATLSLSPGERATLSCRASQSVSSYLAWYQQKPGQAPRLLIYDASNRATGIPARFSGSGSGTDFTLTISSLEPEDFAVYYCQQRSNWPPALTFGGGTKVEIK | binding result [2]: no binding
3 | no binding | Human OX40 (receptor) LHCVGDTYPSNDRCCHECRPGNGMVSRCSRSQNTVCRPCGPGFYNDVVSSKPCKPCTWCNLRSGSERKQLCTATQDTVCRCRAGTQPLDSYKPGVDCAPCPPGHFSPGDNQACKPWTNCTLAGKHTLQPASNSSDAICEDRDPPATQPQETQGPPARPITVQPTEAWPRTSQGPSTRPVEVPGGRA | 
4 | no binding | Human GITR (receptor) QRPTGGPGCGPGRLLLGTGTDARCCRVHTTRCCRDYPGEECCSEWDCMCVQPEFHCGDPCCTTCRHHPCPPGQGVQSQGKFSFGFQCIDCASGTFSGGHEGHCKPWTDCTQFGFLTVFPGNKTHNAVCVPGSPPAEP | 
